From patent WO2021229104A1 (dated 2021)

B1: anti-CD38 nanobody 2F8 (Nb2F8) with C-terminal hexahistidine tag (VHH)
VHH: QVQLVESGGGSVQAGGSLRLSCAASGYTDSDYIMAWFRQAPGKEREVVATIYIGGTYIHYADSVKGRFTISRDNAENTVYLQMNNLKPEDTAMYYCAATKWRPFISTRAAEYNYWGQGTLVTVSS
notes: also called sdAb 2F8
B2: 111In-DTPA-Nb2F8 (untagged Nb2F8 conjugated to CHX-A''-DTPA and labelled with Indium-111) (VHH)
VHH: QVQLVESGGGSVQAGGSLRLSCAASGYTDSDYIMAWFRQAPGKEREVVATIYIGGTYIHYADSVKGRFTISRDNAENTVYLQMNNLKPEDTAMYYCAATKWRPFISTRAAEYNYWGQGTLVTVSS
modifications: CHX-A''-DTPA conjugated to the free epsilon-amino groups of lysines; chelated Indium-111
notes: also called m In-DTPA-Nb2F8; ul In-DTPA-Nb2F8

Columns and labels:
[1] = molecular target: T1, recombinant biotinylated CD38 protein (Homo sapiens (Human), UniProt P28907 43-300, biotinylated (site not stated)); test: BLI (Octet), biotinylated recombinant CD38 on streptavidin sensors, seven nanobody concentrations, 1:1 model
T1 construct: also called biotinylated CD38 antigen; biotin-labelled recombinant CD38 protein

[2] = molecular target: T2, human CD38 receptor expressed on RPMI-8226 multiple myeloma cells and other CD38+ cell lines (human, UniProt P28907 1-300); test: saturation binding of radiolabelled nanobody on CD38+ RPMI-8226 cells, 1 hour at 4 C
T2 construct: Endogenous CD38 on human cell lines; also called cyclic ADP-Ribose Hydrolase 1; ADPRC1

Binder	Kd [1]	Kd [2]
B1	0.7 nM	–
B2	–	16.7 nM
